Consider four molecules from article PMC10806857.

What is called Kd is the equilibrium constant for the complex coming apart. Read a high Kd as lower affinity.

Assay in all cases: EMSA
Background: Mobility shift assays separate free from complexed probe on a gel.

The target of data set [1] is T1, STK19 (TWH19) WT full-length (Homo sapiens, UniProt P49842 1-254).
In another data set the target is STK19 25-C (Homo sapiens, UniProt P49842 25-254).
In another data set the target is STK19 3KA (Homo sapiens, UniProt P49842 1-254, K186A;K190A;K201A).
Chain of STK19 3KA (P49842 whole entry K186A/K190A/K201A): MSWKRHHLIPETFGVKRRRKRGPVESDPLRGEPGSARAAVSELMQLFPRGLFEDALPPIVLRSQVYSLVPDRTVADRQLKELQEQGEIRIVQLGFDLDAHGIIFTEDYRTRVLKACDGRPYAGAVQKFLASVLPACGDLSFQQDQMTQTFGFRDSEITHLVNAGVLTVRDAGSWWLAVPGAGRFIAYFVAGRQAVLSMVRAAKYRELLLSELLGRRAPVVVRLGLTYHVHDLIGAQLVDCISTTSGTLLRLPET
Data set [2] concerns the target T1, STK19 (TWH19) WT full-length. The source holds these as a separate data set.
For data set [3] the target is unchanged. The source holds these as a separate data set.

Where two headings read alike, the source gives them in different places.

T1 sequence (P49842 whole entry): as the sequence (P49842 whole entry K186A/K190A/K201A) above, with A186K, A190K, A201K counted along it
Chain of STK19 25-C (P49842 25-254): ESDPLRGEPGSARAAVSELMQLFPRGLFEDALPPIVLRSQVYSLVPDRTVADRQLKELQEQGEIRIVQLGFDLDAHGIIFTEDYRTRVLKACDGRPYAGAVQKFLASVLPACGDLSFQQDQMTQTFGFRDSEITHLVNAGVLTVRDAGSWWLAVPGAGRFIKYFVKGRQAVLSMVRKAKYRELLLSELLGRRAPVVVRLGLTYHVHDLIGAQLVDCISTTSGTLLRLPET

B1: DNA-30 bp-AT (dsDNA)
DNA 1: AAAAAAAAAAAAAAAAAAAAAAAAAAAAAA
DNA 2: TTTTTTTTTTTTTTTTTTTTTTTTTTTTTT
As to B1, in data set [1], the binding result was “binds”.

B2: DNA1 (dsDNA)
DNA 1: CTGTACTTCCAGGGAATGGAAAGCGACCCTCTGCC
DNA 2: GGCAGAGGGTCGCTTTCCATTCCCTGGAAGTACAG
In the case of B2, in the data set with STK19 25-C, the Kd is 3.8 µM. Also, the binding result with STK19 3KA was “no binding”.

B3: DNA1 UVB-irradiated (dsDNA)
DNA 1: B2 DNA 1
DNA 2: B2 DNA 2
modifications: UVB irradiated, lesions undefined
Consider B3, for which the binding result in data set [2] is “binds”.

B4: RNA-30 bp-AT (dsRNA)
RNA 1: B1 DNA 1
RNA 2: UUUUUUUUUUUUUUUUUUUUUUUUUUUUUU
With B4, the binding result in data set [3] is reported as “binds”.
